Measured values reported in the supplement of paper PMC9170038.

These sequences were tested on MS2 coat protein (assay: apparent KD of MS2 coat protein, switch OFF state (with FMN for OFF switches, without FMN for ON switches); designed switch direction (-1 OFF switch, 1 ON switch): 1; higher = weaker reporter binding). Settings: FMN input: 0 or 200 uM; Eterna round: R93 (includes R88 designs).
Procedure, shortened: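 For every design, apparent KD is the median of normalised binding-curve fits from its clusters. The RNA switches were transcribed on-chip from Illumina sequencing clusters and titrated with SNAP-549-labelled MS2 coat protein (twofold steps, 0.7 or 1.5 nM to 3 µM; 0.8–1.5 h to 10–20 min per step). Titrations used 100 mM Tris-HCl pH 7.5, 80 mM KCl, 4 mM MgCl2, without or with constant ligand.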
For “AAUAUAUUAUUUAAGGAUAUCAUAGGAAACACAUGAGGAUCACCCAUGUGGGAGACUUGGACGGGUGAGAAGGUGGAUAAUAUAU [Samwise Clockwise 37 - Jieux - Same State 2]”, the “apparent KD of MS2 coat protein” value was 20.7 nM.
“AGGCAACAUGAGGAUCACCCAUGUCGCAACAAUCAAGGAUAUGGGAGAAAUAAGAAAAUACCAGAAGGUGAAAUAA [Telelabe]” was tested, and the “apparent KD of MS2 coat protein” value was 92 nM.
For “GAAAAACAUGAGGAUCACCCAUGUAGAGAUAUGGGAGGAUAUACGAAGACGAAAGUCGAGGUAGAAGGCCUAAAAG [Garnet 56]”, the “apparent KD of MS2 coat protein” value was 108 nM.
“AGGAAACAUGAGGAUCACCCAUGUAAAAAUAUGGGAGGAUAUGCGAAAAGAAACAAAGAAGCAGAAGGCCUAAGAA [75%, Ex5 sub 1, 7]” was tested, and the “apparent KD of MS2 coat protein” value was 155 nM.
In the case of “AAAAAACAUGAGGAUCACCCAUGUAAUAAAACGUCAGGAUAUUGAUUUUAUUAUUUAUUGCAAGAAGGGACAAAAA [Same State 1 - Omei 2]”, the “apparent KD of MS2 coat protein” value is reported as 40.3 nM.
In the case of “AAGAAACAUGAGGAUCACCCAUGUAAAAUAAACACAGGAUAUGCGAAAAGAAACAAAGAAGCAGAAGGGUGAAGAA [Mat - Same State 1 - Tesla mod - 56]”, the “apparent KD of MS2 coat protein” value is reported as 36.2 nM.
“GGAAAUAAAAGAGAGGAUAUCCAAAAGGAAACAUGAGGAUCACCCAUGUAAAAGAAAGGAAAAUGGGAGAAGGCUCAAAAUAAAG [salish99-ss2-004]” was tested, and the “apparent KD of MS2 coat protein” value was 56.1 nM.
For “GAACCACAUGAGGAUCACCCAUGUCUAAGAAUGGGAGGAUAUGCACAAAAGGAAAUAACUGCAGAAGGCCUACGAA [62%, Redo, 2]”, the “apparent KD of MS2 coat protein” value was 129 nM.
With “AAAGAAAAACUAGAGGAUAUCCGAGUGGUAACAUGAGGAUCACCCAUGUGAAGAAAGGAGCGUGAGGAGAAGGCUAGAAGAAAAA [JL Nando mod 24]” the “apparent KD of MS2 coat protein” value was 146 nM.
For “AAAAACAUAGUUCAGGAUAUGGUAAUAGUCACAUGAGGAUCACCCAUGUUCAUUUAUAUGAGCGAUCAGAAGGGAGGUAAAAAAA [Mat - Same state - Malcolm Mod - D115]”, the “apparent KD of MS2 coat protein” value was 125 nM.
For “AAGAAACAUGAGGAUCACCCAUGUAAGAUAAACACAGGAUAUGCGAAAGAAAUAAAUAAAGCAGAAGGGUGAAGAA [Mat - Same State 1 - Tesla mod - D148]”, the “apparent KD of MS2 coat protein” value was 44.5 nM.
With “CCUAGACAUGAGGAUCACCCAUGUCGAACAAACAAAGGAUAUGGGAGCCGAAGAAGGCUAUUAGAAGGUUGCAAAU [Aisedbi]” the “apparent KD of MS2 coat protein” value was 34 nM.
“AAAUAAAGGACUGAGGAUAUACCACAUGAAACAUGAGGAUCACCCAUGUUGAAAAACAAAGGGUGGUAGAAGGUAGUCCACAAAC [Same State 2.5a ( so lets mod hyphema)]” was tested, and the “apparent KD of MS2 coat protein” value was 29.3 nM.
With “AAGAAACAUGAGGAUCACCCAUGUAAGAUAAACACAGGAUAUGCGAAAAGAACAAAAGAAGCAGAAGGGUGAAGAA [Mat - Same State 1 - Tesla mod - D145]” the “apparent KD of MS2 coat protein” value was 42.4 nM.
In the case of “UAAAAACAUGAGGAUCACCCAUGUGAGAACAUGGGAGGAUAUACAAGGACGAAAGUCAAAGUAGAAGGCCUAAAAU [Mat - Same State 1 - Mod - D176]”, the “apparent KD of MS2 coat protein” value is reported as 29.3 nM.
In the case of “GGAAGACAUGAGGAUCACCCAUGUGGGAAUAUGGGAGGAUAUACAAAGACGAGAGUCAGAGUAGAAGGCCUAGGAA [salish99-ss1-99]”, the “apparent KD of MS2 coat protein” value is reported as 176 nM.
With “UGAAAACAUGAGGAUCACCCAUGUCUAGGAAAUCAAGGAUAUGGGCCGGCAAUAGGCGGGCCAGAAGGUGAGAAAU [Arisati]” the “apparent KD of MS2 coat protein” value was 144 nM.
For “AUAAAACAUGAGGAUCACCCAUGUAGAAAUAUGGGAGGAUAUACUAGAUCGAAAGAUCUAGUAGAAGGCCUUAAAG [JL Mod of Eli 3]”, the “apparent KD of MS2 coat protein” value was 52.6 nM.
For “GAAAAACAUGAGGAUCACCCAUGUAGAAAUAUGGGAGGAUAUACAAAGACGAAAGUCAAAGUAGAAGGCCCAAAAG [Starry Same State 1.1 (mat747 round 1 mod)]”, the “apparent KD of MS2 coat protein” value was 38.8 nM.
In the case of “AAAAAACAUGAGGAUCACCCAUGUGCAAAAUUCGCAGGAUAUUCUUCUCUUAAAUGAGAGGGAGAAGGGUGUAAAA [Nob's Hobby 24 - Jieux - Same State 1]”, the “apparent KD of MS2 coat protein” value is reported as 43.3 nM.
For “AAAAAACAUGAGGAUCACCCAUGUGAGAACAUGGGAGGAUAUACGAGGACGAGAGUCAUAGUAGAAGGCCUAAAAA [Garnet 67]”, the “apparent KD of MS2 coat protein” value was 65.6 nM.
“GAAAAACAUGAGGAUCACCCAUGUGGAAAUAUGGGAGGAUAUACAAAGACGUAAGUCAAAGUAGAAGGCCUAAAAG [Garnet 94]” was tested, and the “apparent KD of MS2 coat protein” value was 177 nM.
“AUCUAACAUGAGGAUCACCCAUGUAUUCAAAAACAAGGAUAUAUAACAAACAAACAACAAAUAGAAGGUGUAAAUA [Default title]” was tested, and the “apparent KD of MS2 coat protein” value was 19.6 nM.
With “GGAUACAUACAGAAGGAUAUGAGAACAAAGACAUGAGGAUCACCCAUGUACAAAAGGUGGAACAAUCAGAAGGUCUAAACAACAAA [Club and Ball]” the “apparent KD of MS2 coat protein” value was 52.1 nM.
With “AGGAGACAUGAGGAUCACCCAUGUGAGAAGAGGCGAGGAUAUCGAAAAAAAAAAAAAAAACGAGAAGGCGCGAGAA [salish99-SS1-002]” the “apparent KD of MS2 coat protein” value was 58.2 nM.
“AUAUAUAUAAGACAGGAUAUCCGAAAGUAAACAUGAGGAUCACCCAUGUAAAGAAAGAAACUCAUGGAGAAGGGUCAAUAUAUAU [Mat - Same State 2 - Tesla mod - D84]” was tested, and the “apparent KD of MS2 coat protein” value was 65.6 nM.
In the case of “AUAAAUAAAAUCGAGGAUAUCCAAUAAUAAACAUGAGGAUCACCCAUGUAAAAGAAAAUAUAAUGGGAGAAGGCGAAUAAUAAAU [JR_SS002_Sub1701]”, the “apparent KD of MS2 coat protein” value is reported as 20 nM.
For “AUAGGGACGUCGGAGGAUAUUCGAUGUAAAACAUGAGGAUCACCCAUGUGAAUAAAAUAAACAUGGAAGAAGGCCGACGUGCCAU [SS 2 M 54]”, the “apparent KD of MS2 coat protein” value was 13.3 nM.
For “UUAAGCCGCGGGCAGGAUAUGUAUUAAAAUACAUGAGGAUCACCCAUGUGCAGGUGUAACACCUGACAGAAGGGCCAAUCGCAGC [Ceanreerqu]”, the “apparent KD of MS2 coat protein” value was 228 nM.
With “AAAAGACAUGAGGAUCACCCAUGUCAAAACGUAGGAGGAUAUGUCGUGAAAAAAGACUUGGCAGAAGGCCUGUGUC [SS1 - 42]” the “apparent KD of MS2 coat protein” value was 19.5 nM.
In the case of “GGAACACAUGAGGAUCACCCAUGUCAAGGAGGUCGAGGAUAUAGGAAAAAAAAAAAAAAAUUAGAAGGUGAGGAGG [V1]”, the “apparent KD of MS2 coat protein” value is reported as 139 nM.
“UGAUUGAGAUUGUAGGAUAUUGGAAAAGCCACAUGAGGAUCACCCAUGUCAAAAAAAAAAAAAAACAAGAAGGGCGGUUUUAGUUA [Same State 2]” was tested, and the “apparent KD of MS2 coat protein” value was 64.5 nM.
In the case of “AGGAGACAUGAGGAUCACCCAUGUGAGAAGAGGCGAGGAUAUCGAAAAAAAAAAAAAAAACGAGAAGGCGCGAGAA [SameState1]”, the “apparent KD of MS2 coat protein” value is reported as 58.2 nM.
For “AUAAAAACGUAUGAGGAUAUCCAAAAUAAAACAUGAGGAUCACCCAUGUGAAUAAAAUAACAAUGGGAGAAGGCAUACGUAUCAU [SS 2 M 53]”, the “apparent KD of MS2 coat protein” value was 28.8 nM.
With “AGAAGACAUGAGGAUCACCCAUGUGGGAAUAUGGGAGGAUAUACAAAGACGAGAGUCAGAGUAGAAGGCCUAGGAA [salish99-SS1-091(!)]” the “apparent KD of MS2 coat protein” value was 132 nM.
In the case of “AAAAAAAAAAGCUAGGAUAUCCAAAAAAAAACAUGAGGAUCACCCAUGUAAAAAAAAAAAAAAUGGGAGAAGGAGCAAAAAAAAAA [Mod of Eli]”, the “apparent KD of MS2 coat protein” value is reported as 39.6 nM.
For “AUAUAUAUAAGGUAGGAUAUCCAAAAGUCCACAUGAGGAUCACCCAUGUAAAGAAAGAAAAAAUGGGAGAAGGACCAUAUAUAUA [77%, More Tesla, 5]”, the “apparent KD of MS2 coat protein” value was 42.1 nM.
For “AGAAAUAAAAGAGAGGAUAUCCAAAAGAAAACAUGAGGAUCACCCAUGUAGACGAAAGUCAAAUGGGAGAAGGCUCAAAAUAAAG [80% More Helter Skelter 2 + Hairpin]”, the “apparent KD of MS2 coat protein” value was 98.7 nM.
For “AAAAAACAUGAGGAUCACCCAUGUAAUAAAACGUCAGGAUAUUGAUUUUAUUAUUUAUUGCGAGAAGGGACAAAAA [Same State 1 - Omei 3]”, the “apparent KD of MS2 coat protein” value was 28.6 nM.
With “GCGAAUAUGGGUUAGGAUAUGCGCGCAUGUACAUGAGGAUCACCCAUGUUUACGGGCGCCUUUGAGCAGAAGGAGCUAAUCAACGC [SameState2Try2_Neo]” the “apparent KD of MS2 coat protein” value was 24.2 nM.
“AAAUAAAUGACUAAGGAUAUCUCUGAGAAAACAUGAGGAUCACCCAUGUAAUAAUAAAAAGGGUGAGAGAAGGUAGUCAACAAAC [Same State 2.1 (Pariah 4 -changed stack on 9nt hairpin)]” was tested, and the “apparent KD of MS2 coat protein” value was 68 nM.
For “AAAUAUAAAAGAUAGGAUAUACUAAAAUAAACAUGAGGAUCACCCAUGUAAAAAAAAAAACUCAUGUAGAAGGAUCAAAUAUAAA [ss2 8th]”, the “apparent KD of MS2 coat protein” value was 38.1 nM.
With “AGGAAACAUGAGGAUCACCCAUGUAGAAAUAUGGGAGGAUAUCGGAAUAAAAUAAAGAAACGAGAAGGCCUAAAAG [59%, Flamingo, 3]” the “apparent KD of MS2 coat protein” value was 324 nM.
